# Assay results: patent publication US20160251419A1
# Molecular target: Recombinant Aβ1-42 (rAβ1-42 peptides) in the Thioflavin T fibril formation assay (UniProt P05067)
# Assay: cell-based or functional assay
# Sequence of Recombinant Aβ1-42 (rAβ1-42 peptides) in the Thioflavin T fibril formation assay (P05067 672-713 limits assumed): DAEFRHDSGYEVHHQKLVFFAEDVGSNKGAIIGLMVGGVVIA
substance,measurement,value
control anti-rhodopsin 1D4 antibody (Abcam),T50 (time in minutes for 50% inhibition of fibril formation),25.9 min
